Positions of bridges follow the written chain, without caps; N, C: chain ends. Non-standard residues stand in square brackets, D forms with d. No end group written: not given here. Hyp = O=C(O)[C@@H]1C[C@@H](O)CN1; Tic = O=C(O)[C@@H]1Cc2ccccc2CN1; Abu = CC[C@H](N)C(=O)O

As usually defined, the Kd is the concentration at which binding is half-saturated. The low end stands for a tighter complex, the high end for a looser complex. By IC50 is commonly meant the concentration that gives 50% inhibition. Read a high IC50 as weaker potency.

The target of one assay is T1, human insulin receptor (HIR) (human, UniProt P06213). The assay is described as follows: competition.
Take GSLDESFYDWFER [S396]: the Kd is more than 20 µM.

A further assay addresses T1, human insulin receptor (HIR). As to the kind of experiment: competition. The source holds these as a separate data set.
Molecule GSLDESFYDWFER [S396] showed a dissociation constant (Kd) of more than 20 µM.

The target is the same in another assay. As to the kind of experiment: competition. The source holds these as a separate data set.
FHENFADWFVRQVSKK [S220] had a Kd of more than 20 µM.
Still for that read-out and setting: the value for SDGEYNAIELLS [S118] was 2.4 µM; that for FYDWFKK [S166] was more than 20 µM.
The molecule PLRESRNFYDWFVQQLE [S366] came in with a Kd of 3.7 µM.
AFYKWFAKK [S216] gave a Kd of more than 20 µM.
The same measure, in the same setting: then FHENFYDAFVRQVSKK [S222], with more than 20 µM; and AFYDWFAK [S180], with more than 20 µM.
On to ALEEEWAWVQVRSIRSGLPL [S284], for which the dissociation constant Kd was more than 20 µM.
Same read-out and setting: then FYDWF [S165], with more than 20 µM; and GSLDESFYDWFE [S397], with more than 20 µM; and AFYDWFAKK [S167], with more than 20 µM.
Same read-out and setting: then AFYGWFAKK [S215], with more than 20 µM.
FYDWFA [S183] came in with a Kd of more than 20 µM.
The same measure, in the same setting: the value for HLSVGEELSWWVALLGQWAR [S282] was more than 20 µM.
The molecule WFGYAWLS [S317] registered a dissociation constant Kd of more than 20 µM.
On to RD[Hyp]FYDWEDD[dI] [S268], for which the dissociation constant (Kd) was found to be 0.45 µM.
The same measure, in the same setting: the value for [dF][dH][dE][dN][dF][dY][dD][dW][dF][dV][dR][dQ][dV][dS][dK][dK] [S114] was 8.3 µM; that for AHENFYDWFVRQVSKK [S113] was 5.9 µM.
Take ESFYDWFER [S401]: the Kd is more than 20 µM.
With GFREGQRWYWFVAQVT [S278], the Kd was more than 20 µM.
Still for that read-out and setting: then HPTSKEIYAKLLK [S122], with 93 µM; and APVSTEELRWGALLFGQWAG [S283], with more than 20 µM.
On the same count and under the same terms, then FHENFYDWFVAQVSKK [S108], with 7.5 µM.
As for GSLDESFYDWF [S398], the Kd was more than 20 µM.
For Ac-FYDWF [S184], the Kd is more than 20 µM.
Still for that read-out and setting: the value for FHENFYDWAVRQVSKK [S223] was more than 20 µM.
For the molecule GSLDESFYDWFER [S396], the equilibrium dissociation constant (Kd) is more than 20 µM.
Take AFYEWFAKK [S214]: the Kd was more than 20 µM.
AFYDWFA [S181] came in with a Kd of more than 20 µM.
Turning to FHENAYDWFVRQVSKK [S219], the Kd was more than 20 µM.
Still for that read-out and setting: then DPFYQGLWEWLRESGEE [S289], with more than 20 µM.
On to [Abu]CLEE[dW]GASL[Tic]QCSG (disulfide 2-13 (inferred)) [S266], for which the Kd is more than 20 µM.
The molecule ESFYDWF [S403] displayed a Kd of more than 20 µM.
In turn, AFYDWF [S182] registered a Kd of more than 20 µM.
As to ESFYDWFE [S402], the Kd was more than 20 µM.

The target in another assay is mIR (human, UniProt P06213). The assay is described as follows: FP vs FITC-RP9.
In turn, GGTVWPGYEWLRNA [E8 (D120)] returned an IC50 of more than 100 µM.
For the molecule GSLDESFYDWFERQLGKK [S371 (RP9)], inhibition was half-maximal at 0.049 µM (IC50).
On the same count and under the same terms, the value for FHENFYDWFVQRVSKK [H2C (D117)] was 0.77 µM.

The values are drawn from patent US20090053807 (published 2009).
